Measured values: patent US20230210968A1, “RIBONUCLEOPROTEIN APPROACH TO BOOST THE STING SIGNALING FOR CANCER IMMUNOTHERAPY” (MASSACHUSETTS INSTITUTE OF TECHNOLOGY, priority 2020, published 2023)

Assays:
[1] = tested on: STINGΔTM-induced STING signaling in HEK293T cells; assay: Interferon activity in HEK293T cells pretreated with chemical inhibitors, then cGAMP-STINGΔTM; assay type: cell-based, human; details: increasing inhibitor concentrations before cGAMP-STINGΔTM treatment
Protocol: For the HEK293T cells, a reporter derivative from this cell line was first generated by transfecting pGL4.45[luc2P/ISRE/Hygro] (Promega company) and stably selected in 200 μg/ml hydromycin. The pGL4.45[luc2P/ISRE/Hygro] vector contains five copies of an interferon-stimulated response element (ISRE) that drives transcription of the luciferase reporter gene luc2P (Photinus pyralis). luc2p is a synthetically-derived luciferase sequence with humanized codon optimization that is designed for high expression and reduced anomalous transcription. The luc2P gene contains hPEST, a protein destabilization sequence, which allows luc2P protein levels to respond more quickly than those of […] to induction of transcription. […] Commercial transfection reagent TranslT-X2TM was used to help transfection (2 μg pDNA mixed with 4 μL TranslT-X2TM in 250 μL Opti-MEM media for each 6-well). […] Transfected cells were also harvested for western blotting.

[2] = tested on: MC38 cells; assay: Therapeutic treatment study, MC38 colon cancer model; assay type: in vivo, C57BL/6 mice; details: intratumoral, 100 μg protein and/or 2.5 μg cGAMP, days 7, 14, 21, 28, 35
Protocol: A therapeutic treatment study with an MC38 colon cancer model was then performed. […] The tumor size and survival were monitored on a schedule similar to that of the prophylactic study.

[3] = tested on: intracellular trafficking of the tetrameric complex (EEA1, TBK1, Golgi apparatus, LAMP1); assay: Immunocytochemistry / confocal microscopy of intracellular trafficking; assay type: cell-based
Protocol: Immunocytochemistry: Transfection and immune staining were performed in Millicell® EZ chamber slides (Millipore Sigma, Temecula, Calif., USA). […] Cells were imaged with an Inverted Olympus IX83 microscope equipped with a Hamamatsu ImagEM high sensitivity camera at the Swanson Biotechnology Center (MIT).

[4] = target: the molecule itself; assay: FPLC size exclusion, cGAMP titration; self-association
[5] = Transmission electron microscopy particle size; details: in PBS
[6] = target: the molecule itself; assay: FPLC size exclusion with cGAMP; self-association
[7] = tetrameric complex, 6 h post-transfection

Molecule: C[C@H]1CCC/C=C/[C@@H]2C[C@H](O)C[C@H]2[C@H](O)/C=C/C(=O)O1 [BFA, brefeldin A]
- interferon activity after inhibitor pretreatment [1]: insignificant effect

Molecule: CO/C1=C\C(C)=C\[C@@H](C)[C@@H](O)[C@@H](C)C/C(C)=C/C=C/[C@H](OC)[C@@H]([C@@H](C)[C@@H](O)[C@H](C)[C@@]2(O)C[C@@H](O)[C@H](C)[C@@H](C(C)C)O2)OC1=O [BafA1, bafilomycin A1]
- interferon activity after inhibitor pretreatment [1]: decreasing activity observed with increasing concentrations

Molecule: CCN(CC)CCCC(C)Nc1ccnc2cc(Cl)ccc12 (stereo not shown) [CQ, chloroquine]
- interferon activity after inhibitor pretreatment [1]: increased interferon activity

Molecule: O=C(NCCCNc1nc(Nc2cccc(CN3CCOCC3)c2)ncc1C1CC1)C1CCC1 [MRT, MRT67307]
- interferon activity after inhibitor pretreatment [1]: decrease with increasing concentrations

Molecule: Nc1nc2c(ncn2[C@@H]2O[C@@H]3COP(=O)(O)O[C@H]4[C@@H](O)[C@H](n5cnc6c(N)ncnc65)O[C@@H]4COP(=O)(O)O[C@@H]2[C@@H]3O)c(=O)[nH]1 [cGAMP, 2′3′ cyclic guanosine monophosphate-adenosine monophosphate]
- tumor burden [2]: significantly reduced tumor burden

B1: mSTINGΔTM (mouse STING amino acids 138-378) (other)
chain: LTPAEVSAVCEEKKLNVAHGLAWSYYIGYLRLILPGLQARIRMFNQLHNNMLSGAGSRRLYILFPLDCGVPDNLSVVDPNIRFRDMLPQQNIDRAGIKNRVYSNSVYEILENGQPAGVCILEYATPLQTLFAMSQDAKAGFSREDRLEQAKLFCRTLEEILEDVPESRNNCRLIVYQEPTDGNSFSLSQEVLRHIRQEEKEEVTMNAPMTSVAPPPSVLSQEPRLLISGMDQPLPLRTDLI
notes: Runs as a dimer (~60 kDa) without cGAMP and as a tetramer (~120 kDa) with cGAMP; Entries with this molecule as both partners are self-association; also called mouse STINGΔTM; recombinant transmembrane-deficient STING
- co-localization with LAMP1 ([3]; 24 h post-transfection): co-localization with Lysosomal Associated Membrane Protein 1 (LAMP1) at 24 h post-transfection
- co-localization with Early Endosome Antigen 1 (EEA1) [3, 7]: limited co-localization
- co-localization with TBK1 [3, 7]: co-localization of TBK1 with STINGΔTM in punctate structures
- co-localization with the Golgi apparatus ([3]; with or without the addition of BFA): no significant evidence of STINGΔTM co-localization with the Golgi apparatus
- binding result [4]: binds
- particle diameter (TEM) [5]: ~14 nm

B2: mSTINGΔTM R237A-Y239A (other)
chain: LTPAEVSAVCEEKKLNVAHGLAWSYYIGYLRLILPGLQARIRMFNQLHNNMLSGAGSRRLYILFPLDCGVPDNLSVVDPNIRFRDMLPQQNIDRAGIKNAVASNSVYEILENGQPAGVCILEYATPLQTLFAMSQDAKAGFSREDRLEQAKLFCRTLEEILEDVPESRNNCRLIVYQEPTDGNSFSLSQEVLRHIRQEEKEEVTMNAPMTSVAPPPSVLSQEPRLLISGMDQPLPLRTDLI
notes: Expressed His-tagged; also called STINGΔTM R238A/Y240A; R237A/Y239A mutant STINGΔTM
- binding result [4]: binds

B3: mouse STINGΔTM Q272A/A276Q (other)
chain: LTPAEVSAVCEEKKLNVAHGLAWSYYIGYLRLILPGLQARIRMFNQLHNNMLSGAGSRRLYILFPLDCGVPDNLSVVDPNIRFRDMLPQQNIDRAGIKNRVYSNSVYEILENGQPAGVCILEYATPLQTLFAMSADAKQGFSREDRLEQAKLFCRTLEEILEDVPESRNNCRLIVYQEPTDGNSFSLSQEVLRHIRQEEKEEVTMNAPMTSVAPPPSVLSQEPRLLISGMDQPLPLRTDLI
notes: Expressed His-tagged; also called Q272A/A276Q mutant; functional double mutant at the tetramer interface
- binding result [6]: binds
